One substance from paper PMC4802056 can be followed below.

The assay addresses taxol-stabilized microtubules. Nature of the assay: co-sedimentation; microtubule spin-down from DT40 lysates (about 2 mg/ml) mixed with taxol-stabilized microtubules (0.2 mg/ml) or non-taxol tubulin, 30 °C 30 min, pelleted through a 1 M sucrose cushion in BRB80, western blotting. For orientation: In western blotting, separated proteins are transferred to a membrane and probed.

Take CEP215(ΔCM1)-TAP (domain or fragment): the fold reduction in microtubule binding compared with CEP215-TAP and CEP215(ΔHBR)-TAP was 3.4 fold.
